Data taken from patent publication US20230365662A1.
“And” between values parts separate entries of the source, which are not always exact repeats. Equal values may be shown once.

B1: parental mouse (KB001) Fab FASEBA, VL variant S57R (Fab, V domains shown)
VH: EVQLKQSGPGLVAPSQSLSITCTVSGFSLSIYSVHWVRQPPGKGLEWLGMIWGGGSSDYNSALKSRLSISKDNSKSQVFLKMNSLQTDDTAMYYCARNGNFYAMDYWGQGTSVTVSS
VL: QIVLTQSPAIMSASLGERVTMTCTASSSVSSSFLHWYQQKPGSSPQLWIYSTSNLARGVPARFSGSGSGTSYSLTISSMEAEDAATYYCHQYHHSPYIYTFGGGTKLEIK
B2: parental mouse (KB001) Fab FASEBA, VL variant S95T (Fab, V domains shown)
VH: EVQLKQSGPGLVAPSQSLSITCTVSGFSLSIYSVHWVRQPPGKGLEWLGMIWGGGSSDYNSALKSRLSISKDNSKSQVFLKMNSLQTDDTAMYYCARNGNFYAMDYWGQGTSVTVSS
VL: QIVLTQSPAIMSASLGERVTMTCTASSSVSSSFLHWYQQKPGSSPQLWIYSTSNLASGVPARFSGSGSGTSYSLTISSMEAEDAATYYCHQYHHTPYIYTFGGGTKLEIK
B3: parental mouse (KB001) Fab FASEBA, VL variant H93N (Fab, V domains shown)
VH: EVQLKQSGPGLVAPSQSLSITCTVSGFSLSIYSVHWVRQPPGKGLEWLGMIWGGGSSDYNSALKSRLSISKDNSKSQVFLKMNSLQTDDTAMYYCARNGNFYAMDYWGQGTSVTVSS
VL: QIVLTQSPAIMSASLGERVTMTCTASSSVSSSFLHWYQQKPGSSPQLWIYSTSNLASGVPARFSGSGSGTSYSLTISSMEAEDAATYYCHQYNHSPYIYTFGGGTKLEIK
B4: parental mouse (KB001) Fab FASEBA, VL variant H90L (Fab, V domains shown)
VH: EVQLKQSGPGLVAPSQSLSITCTVSGFSLSIYSVHWVRQPPGKGLEWLGMIWGGGSSDYNSALKSRLSISKDNSKSQVFLKMNSLQTDDTAMYYCARNGNFYAMDYWGQGTSVTVSS
VL: QIVLTQSPAIMSASLGERVTMTCTASSSVSSSFLHWYQQKPGSSPQLWIYSTSNLASGVPARFSGSGSGTSYSLTISSMEAEDAATYYCLQYHHSPYIYTFGGGTKLEIK
B5: parental mouse (KB001) Fab FASEBA, VL variant S95N (Fab, V domains shown)
VH: EVQLKQSGPGLVAPSQSLSITCTVSGFSLSIYSVHWVRQPPGKGLEWLGMIWGGGSSDYNSALKSRLSISKDNSKSQVFLKMNSLQTDDTAMYYCARNGNFYAMDYWGQGTSVTVSS
VL: QIVLTQSPAIMSASLGERVTMTCTASSSVSSSFLHWYQQKPGSSPQLWIYSTSNLASGVPARFSGSGSGTSYSLTISSMEAEDAATYYCHQYHHNPYIYTFGGGTKLEIK
B6: parental mouse (KB001) Fab FASEBA, VL variant Q91M (Fab, V domains shown)
VH: EVQLKQSGPGLVAPSQSLSITCTVSGFSLSIYSVHWVRQPPGKGLEWLGMIWGGGSSDYNSALKSRLSISKDNSKSQVFLKMNSLQTDDTAMYYCARNGNFYAMDYWGQGTSVTVSS
VL: QIVLTQSPAIMSASLGERVTMTCTASSSVSSSFLHWYQQKPGSSPQLWIYSTSNLASGVPARFSGSGSGTSYSLTISSMEAEDAATYYCHMYHHSPYIYTFGGGTKLEIK
B7: parental mouse (KB001) Fab FASEBA, VL variant H94Y (Fab, V domains shown)
VH: EVQLKQSGPGLVAPSQSLSITCTVSGFSLSIYSVHWVRQPPGKGLEWLGMIWGGGSSDYNSALKSRLSISKDNSKSQVFLKMNSLQTDDTAMYYCARNGNFYAMDYWGQGTSVTVSS
VL: QIVLTQSPAIMSASLGERVTMTCTASSSVSSSFLHWYQQKPGSSPQLWIYSTSNLASGVPARFSGSGSGTSYSLTISSMEAEDAATYYCHQYHYSPYIYTFGGGTKLEIK
B8: parental mouse (KB001) Fab FASEBA, VL variant Q91E (Fab, V domains shown)
VH: EVQLKQSGPGLVAPSQSLSITCTVSGFSLSIYSVHWVRQPPGKGLEWLGMIWGGGSSDYNSALKSRLSISKDNSKSQVFLKMNSLQTDDTAMYYCARNGNFYAMDYWGQGTSVTVSS
VL: QIVLTQSPAIMSASLGERVTMTCTASSSVSSSFLHWYQQKPGSSPQLWIYSTSNLASGVPARFSGSGSGTSYSLTISSMEAEDAATYYCHEYHHSPYIYTFGGGTKLEIK
B9: parental mouse (KB001) Fab FASEBA, VL variant S95F (Fab, V domains shown)
VH: EVQLKQSGPGLVAPSQSLSITCTVSGFSLSIYSVHWVRQPPGKGLEWLGMIWGGGSSDYNSALKSRLSISKDNSKSQVFLKMNSLQTDDTAMYYCARNGNFYAMDYWGQGTSVTVSS
VL: QIVLTQSPAIMSASLGERVTMTCTASSSVSSSFLHWYQQKPGSSPQLWIYSTSNLASGVPARFSGSGSGTSYSLTISSMEAEDAATYYCHQYHHFPYIYTFGGGTKLEIK
B10: parental mouse (KB001) Fab FASEBA, VL variant S95A (Fab, V domains shown)
VH: EVQLKQSGPGLVAPSQSLSITCTVSGFSLSIYSVHWVRQPPGKGLEWLGMIWGGGSSDYNSALKSRLSISKDNSKSQVFLKMNSLQTDDTAMYYCARNGNFYAMDYWGQGTSVTVSS
VL: QIVLTQSPAIMSASLGERVTMTCTASSSVSSSFLHWYQQKPGSSPQLWIYSTSNLASGVPARFSGSGSGTSYSLTISSMEAEDAATYYCHQYHHAPYIYTFGGGTKLEIK
B11: parental mouse (KB001) Fab FASEBA, VL variant H90W (Fab, V domains shown)
VH: EVQLKQSGPGLVAPSQSLSITCTVSGFSLSIYSVHWVRQPPGKGLEWLGMIWGGGSSDYNSALKSRLSISKDNSKSQVFLKMNSLQTDDTAMYYCARNGNFYAMDYWGQGTSVTVSS
VL: QIVLTQSPAIMSASLGERVTMTCTASSSVSSSFLHWYQQKPGSSPQLWIYSTSNLASGVPARFSGSGSGTSYSLTISSMEAEDAATYYCWQYHHSPYIYTFGGGTKLEIK
B12: parental mouse (KB001) Fab FASEBA (Fab, V domains shown)
VH: EVQLKQSGPGLVAPSQSLSITCTVSGFSLSIYSVHWVRQPPGKGLEWLGMIWGGGSSDYNSALKSRLSISKDNSKSQVFLKMNSLQTDDTAMYYCARNGNFYAMDYWGQGTSVTVSS
VL: QIVLTQSPAIMSASLGERVTMTCTASSSVSSSFLHWYQQKPGSSPQLWIYSTSNLASGVPARFSGSGSGTSYSLTISSMEAEDAATYYCHQYHHSPYIYTFGGGTKLEIK
B13: parental mouse (KB001) Fab FASEBA, VL variant H94F (Fab, V domains shown)
VH: EVQLKQSGPGLVAPSQSLSITCTVSGFSLSIYSVHWVRQPPGKGLEWLGMIWGGGSSDYNSALKSRLSISKDNSKSQVFLKMNSLQTDDTAMYYCARNGNFYAMDYWGQGTSVTVSS
VL: QIVLTQSPAIMSASLGERVTMTCTASSSVSSSFLHWYQQKPGSSPQLWIYSTSNLASGVPARFSGSGSGTSYSLTISSMEAEDAATYYCHQYHFSPYIYTFGGGTKLEIK
B14: parental mouse (KB001) Fab FASEBA, VL variant Y92N (Fab, V domains shown)
VH: EVQLKQSGPGLVAPSQSLSITCTVSGFSLSIYSVHWVRQPPGKGLEWLGMIWGGGSSDYNSALKSRLSISKDNSKSQVFLKMNSLQTDDTAMYYCARNGNFYAMDYWGQGTSVTVSS
VL: QIVLTQSPAIMSASLGERVTMTCTASSSVSSSFLHWYQQKPGSSPQLWIYSTSNLASGVPARFSGSGSGTSYSLTISSMEAEDAATYYCHQNHHSPYIYTFGGGTKLEIK
B15: parental mouse (KB001) Fab FASEBA, VL variant S95Q (Fab, V domains shown)
VH: EVQLKQSGPGLVAPSQSLSITCTVSGFSLSIYSVHWVRQPPGKGLEWLGMIWGGGSSDYNSALKSRLSISKDNSKSQVFLKMNSLQTDDTAMYYCARNGNFYAMDYWGQGTSVTVSS
VL: QIVLTQSPAIMSASLGERVTMTCTASSSVSSSFLHWYQQKPGSSPQLWIYSTSNLASGVPARFSGSGSGTSYSLTISSMEAEDAATYYCHQYHHQPYIYTFGGGTKLEIK
B16: parental mouse (KB001) Fab FASEBA, VL variant S95H (Fab, V domains shown)
VH: EVQLKQSGPGLVAPSQSLSITCTVSGFSLSIYSVHWVRQPPGKGLEWLGMIWGGGSSDYNSALKSRLSISKDNSKSQVFLKMNSLQTDDTAMYYCARNGNFYAMDYWGQGTSVTVSS
VL: QIVLTQSPAIMSASLGERVTMTCTASSSVSSSFLHWYQQKPGSSPQLWIYSTSNLASGVPARFSGSGSGTSYSLTISSMEAEDAATYYCHQYHHHPYIYTFGGGTKLEIK
B17: parental mouse (KB001) Fab FASEBA, VL variant S95I (Fab, V domains shown)
VH: EVQLKQSGPGLVAPSQSLSITCTVSGFSLSIYSVHWVRQPPGKGLEWLGMIWGGGSSDYNSALKSRLSISKDNSKSQVFLKMNSLQTDDTAMYYCARNGNFYAMDYWGQGTSVTVSS
VL: QIVLTQSPAIMSASLGERVTMTCTASSSVSSSFLHWYQQKPGSSPQLWIYSTSNLASGVPARFSGSGSGTSYSLTISSMEAEDAATYYCHQYHHIPYIYTFGGGTKLEIK
B18: parental mouse (KB001) Fab FASEBA, VL variant S95E (Fab, V domains shown)
VH: EVQLKQSGPGLVAPSQSLSITCTVSGFSLSIYSVHWVRQPPGKGLEWLGMIWGGGSSDYNSALKSRLSISKDNSKSQVFLKMNSLQTDDTAMYYCARNGNFYAMDYWGQGTSVTVSS
VL: QIVLTQSPAIMSASLGERVTMTCTASSSVSSSFLHWYQQKPGSSPQLWIYSTSNLASGVPARFSGSGSGTSYSLTISSMEAEDAATYYCHQYHHEPYIYTFGGGTKLEIK
B19: parental mouse (KB001) Fab FASEBA, VL variant Y92D (Fab, V domains shown)
VH: EVQLKQSGPGLVAPSQSLSITCTVSGFSLSIYSVHWVRQPPGKGLEWLGMIWGGGSSDYNSALKSRLSISKDNSKSQVFLKMNSLQTDDTAMYYCARNGNFYAMDYWGQGTSVTVSS
VL: QIVLTQSPAIMSASLGERVTMTCTASSSVSSSFLHWYQQKPGSSPQLWIYSTSNLASGVPARFSGSGSGTSYSLTISSMEAEDAATYYCHQDHHSPYIYTFGGGTKLEIK
B20: parental mouse (KB001) Fab FASEBA, VL variant S95W (Fab, V domains shown)
VH: EVQLKQSGPGLVAPSQSLSITCTVSGFSLSIYSVHWVRQPPGKGLEWLGMIWGGGSSDYNSALKSRLSISKDNSKSQVFLKMNSLQTDDTAMYYCARNGNFYAMDYWGQGTSVTVSS
VL: QIVLTQSPAIMSASLGERVTMTCTASSSVSSSFLHWYQQKPGSSPQLWIYSTSNLASGVPARFSGSGSGTSYSLTISSMEAEDAATYYCHQYHHWPYIYTFGGGTKLEIK
B21: parental mouse (KB001) Fab FASEBA, VL variant S57M (Fab, V domains shown)
VH: EVQLKQSGPGLVAPSQSLSITCTVSGFSLSIYSVHWVRQPPGKGLEWLGMIWGGGSSDYNSALKSRLSISKDNSKSQVFLKMNSLQTDDTAMYYCARNGNFYAMDYWGQGTSVTVSS
VL: QIVLTQSPAIMSASLGERVTMTCTASSSVSSSFLHWYQQKPGSSPQLWIYSTSNLAMGVPARFSGSGSGTSYSLTISSMEAEDAATYYCHQYHHSPYIYTFGGGTKLEIK

Target: HRgpA-6H (Porphyromonas gingivalis) (UniProt P28784)
Experiment: ELISA, Fab FASEBA supernatant on coated HRgpA-6H

Chain of UniProt P28784 (P28784 228-991 limits assumed): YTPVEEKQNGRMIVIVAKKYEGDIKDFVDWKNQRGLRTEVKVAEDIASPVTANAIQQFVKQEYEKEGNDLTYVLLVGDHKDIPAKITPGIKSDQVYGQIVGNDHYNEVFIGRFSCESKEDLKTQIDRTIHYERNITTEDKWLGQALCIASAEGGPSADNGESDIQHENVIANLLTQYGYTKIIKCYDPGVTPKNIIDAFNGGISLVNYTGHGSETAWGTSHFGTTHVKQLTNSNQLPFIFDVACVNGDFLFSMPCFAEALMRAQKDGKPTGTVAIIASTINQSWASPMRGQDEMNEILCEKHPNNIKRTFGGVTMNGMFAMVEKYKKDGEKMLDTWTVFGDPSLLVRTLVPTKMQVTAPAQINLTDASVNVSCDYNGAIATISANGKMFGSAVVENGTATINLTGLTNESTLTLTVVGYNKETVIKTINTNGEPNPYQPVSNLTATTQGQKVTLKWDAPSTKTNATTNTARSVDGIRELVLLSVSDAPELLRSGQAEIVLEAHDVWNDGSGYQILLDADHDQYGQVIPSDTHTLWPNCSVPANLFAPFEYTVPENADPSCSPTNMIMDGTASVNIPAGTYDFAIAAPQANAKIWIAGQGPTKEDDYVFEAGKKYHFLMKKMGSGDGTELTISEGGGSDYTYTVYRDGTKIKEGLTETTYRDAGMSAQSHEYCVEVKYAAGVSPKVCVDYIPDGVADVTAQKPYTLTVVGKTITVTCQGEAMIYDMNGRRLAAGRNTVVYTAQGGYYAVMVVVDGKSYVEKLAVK

Binder | OD450nm | Ratio OD(Variant)/OD(WT)
B1 | 0.746 OD450nm | 0.915 ratio to WT
B2 | 0.871 OD450nm | 0.948 ratio to WT
B3 | 0.857 OD450nm | 0.91 ratio to WT
B4 | 0.785 OD450nm and 0.694 OD450nm | 0.911 ratio to WT and 0.806 ratio to WT
B5 | 0.863 OD450nm and 0.884 OD450nm | 0.94 ratio to WT and 0.962 ratio to WT
B6 | 0.757 OD450nm | 0.879 ratio to WT
B7 | 0.865 OD450nm | 0.942 ratio to WT
B8 | 0.709 OD450nm and 0.694 OD450nm and 0.701 OD450nm | 0.823 ratio to WT and 0.806 ratio to WT and 0.814 ratio to WT
B9 | 0.837 OD450nm | 0.911 ratio to WT
B10 | 0.83 OD450nm and 0.872 OD450nm | 0.904 ratio to WT and 0.949 ratio to WT
B11 | 0.763 OD450nm | 0.886 ratio to WT
B12 | 0.9 OD450nm and 0.889 OD450nm | 0.98 ratio to WT and 0.968 ratio to WT
B13 | 0.77 OD450nm | 0.838 ratio to WT
B14 | 0.773 OD450nm | 0.821 ratio to WT
B15 | 0.893 OD450nm | 0.972 ratio to WT
B16 | 0.8 OD450nm | 0.871 ratio to WT
B17 | 0.846 OD450nm and 0.817 OD450nm and 0.791 OD450nm | 0.921 ratio to WT and 0.889 ratio to WT and 0.861 ratio to WT
B18 | 0.855 OD450nm and 0.82 OD450nm | 0.931 ratio to WT and 0.893 ratio to WT
B19 | 0.758 OD450nm | 0.805 ratio to WT
B20 | 0.804 OD450nm and 0.79 OD450nm | 0.875 ratio to WT and 0.86 ratio to WT
B21 | 0.745 OD450nm | 0.914 ratio to WT
